According to the supplement of paper PMC10567573:

B1: C1orf137 (parent)
chain: RQHHHQSSFPGSLPQETNLTLKVC

Variants of: B1
Assay: protein stability index of a GFP-peptide fusion (GPS, HEK-293T) (PSI 1-6); higher = more stable
Conditions: c terminus: a fixed tail appended
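Further: lentivirally expressed fusions sorted by FACS into six bins by GFP to DsRed ratio, PSI derived from sequencing read proportions per bin multiplied by bin number.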

Compared with RQHHHQSSFPGSLPQETNETLKVC, RQHHHQSSFPGSLPQETNITLKVC is lower in protein stability index: 4.34 for the first, 3.39 for the second.

Going from RQHHHQSSFPGSLPQETNNTLKVC to RQHHRQSSFPGSLPQETNLTLKVC, the protein stability index rises from 3.49 to 3.64.

First: RQHHKQSSFPGSLPQETNLTLKVC
Second: RQHHNQSSFPGSLPQETNLTLKVC
The protein stability index of the first is lower: 2.34 for the first, 2.91 for the second.

First: RQHHMQSSFPGSLPQETNLTLKVC
Second: RQHHLQSSFPGSLPQETNLTLKVC
The protein stability index of the first is lower: 2.63 for the first, 2.73 for the second.

First: RQHHEQSSFPGSLPQETNLTLKVC
Second: RQHHHQSSFPMSLPQETNLTLKVC
The protein stability index of the first is higher: 3.97 for the first, 3.24 for the second.

Going from RQHHHQSSFPCSLPQETNLTLKVC to RQHHHQSSFPGSLPQETNLLLKVC, the protein stability index falls from 2.61 to 2.32.

Going from RQHHHQSSFPGSLPQETNLVLKVC to RQHHHQSSFPGSLPQETNLCLKVC, the protein stability index rises from 2.42 to 2.8.

Compared with RQHHHQSSFPGSLPQETNLTLKRC, RQHHHQSSFPGSLPQETNLTLKMC is lower in protein stability index: 3.83 for the first, 3.33 for the second.

Going from RQHHHQSSFPGSLPQETNLTLKAC to RQHHHQSSFPGSLPQETNLTLKLC, the protein stability index falls from 3.78 to 3.03.

First: RQHHHQSSFPGSLPQETNLTLKYC
Second: RQHHHQSSFPGSLPQSTNLTLKVC
The protein stability index of the first is higher: 2.73 for the first, 2.63 for the second.

Going from RQHHHQSSFPGSLPQCTNLTLKVC to RQHHHQSSFPGSLPQITNLTLKVC, the protein stability index rises from 1.47 to 1.75.

Going from RQHHHQSSFPGSLPQVTNLTLKVC to RQHHHQSSFPGSLPQQTNLTLKVC, the protein stability index rises from 1.57 to 2.57.

First: RQHHHQSSFPGSLPQFTNLTLKVC
Second: RQHHHQSSFPGSLPQWTNLTLKVC
The protein stability index of the first is higher: 2.28 for the first, 1.55 for the second.

Going from RQHHHQASFPGSLPQETNLTLKVC to RQHHHQKSFPGSLPQETNLTLKVC, the protein stability index rises from 2.71 to 3.11.

Going from RQHHHQFSFPGSLPQETNLTLKVC to RQHHHQSTFPGSLPQETNLTLKVC, the protein stability index rises from 2.36 to 2.71.

Going from RQHHHQSCFPGSLPQETNLTLKVC to RQHHHQSSFPGSLPCETNLTLKVC, the protein stability index falls from 2.67 to 2.56.

First: RQHHHQSSFPGSLPWETNLTLKVC
Second: RQHHHQSSFPGSLPEETNLTLKVC
The protein stability index of the first is lower: 2.29 for the first, 3.65 for the second.

First: RQHHHQSSFPGSLPQETNLTSKVC
Second: RQHHHQSSFPGSLPQETNLTDKVC
The protein stability index of the first is lower: 4.02 for the first, 4.43 for the second.

Compared with RQHHHQSSFPGSLPQETNLTAKVC, RQHHHQSSFPGSLPQETNLTIKVC is lower in protein stability index: 4 for the first, 2.41 for the second.

Going from RQHHHQSSFPGSLPQETNLTVKVC to RQHHHQSSFPGSLPQETNLTLKVY, the protein stability index falls from 3.23 to 2.22.

Compared with RQHHHQSSFPGSLPQETNLTLKVQ, RQHHHQSSFPGSLPQETNLTLKVN is higher in protein stability index: 3.37 for the first, 3.7 for the second.

Going from RQHHHQSSFPGSLPQETNLTLKVH to RQHHHQSSFPGSIPQETNLTLKVC, the protein stability index falls from 3.37 to 3.2.

Compared with RQHHHQSSFPGSVPQETNLTLKVC, RQHHHQSSFPGSWPQETNLTLKVC is lower in protein stability index: 3.65 for the first, 3.13 for the second.

Compared with RQHHHQSSFPGSEPQETNLTLKVC, RQHHHQSSFPGSLMQETNLTLKVC is lower in protein stability index: 3.23 for the first, 2.02 for the second.

Compared with RQHHHQSSFPGSLHQETNLTLKVC, RQHHHQSSFPGSLRQETNLTLKVC is higher in protein stability index: 2.37 for the first, 2.4 for the second.

Going from RQHHHQSSFPGSLGQETNLTLKVC to RQHHHQSSFPGSLKQETNLTLKVC, the protein stability index falls from 3.18 to 3.13.

Compared with RQHHHQSSFPGSLYQETNLTLKVC, RQHHHQSSFPGSLEQETNLTLKVC is higher in protein stability index: 2.11 for the first, 3.17 for the second.

First: PQHHHQSSFPGSLPQETNLTLKVC
Second: AQHHHQSSFPGSLPQETNLTLKVC
The protein stability index of the first is higher: 2.79 for the first, 2.7 for the second.

First: VQHHHQSSFPGSLPQETNLTLKVC
Second: QQHHHQSSFPGSLPQETNLTLKVC
The protein stability index of the first is lower: 3.05 for the first, 3.44 for the second.

First: RQHHHQSSGPGSLPQETNLTLKVC
Second: RQHHHQSSTPGSLPQETNLTLKVC
The protein stability index of the first is higher: 4.03 for the first, 3.42 for the second.

Compared with RQHHHQSSDPGSLPQETNLTLKVC, RQHHHQSSPPGSLPQETNLTLKVC is lower in protein stability index: 4.08 for the first, 3.38 for the second.

Compared with RQHHHQSSVPGSLPQETNLTLKVC, RQHHHQSSFPGSLPQEKNLTLKVC is higher in protein stability index: 3.46 for the first, 3.54 for the second.

Compared with RQHHHQSSFPGSLPQENNLTLKVC, RQHHHQSSFPGYLPQETNLTLKVC is lower in protein stability index: 3.15 for the first, 2.27 for the second.

Compared with RQHHHQSSFPGELPQETNLTLKVC, RQHHHQSSFPGGLPQETNLTLKVC is lower in protein stability index: 3.46 for the first, 2.96 for the second.

First: RQHHHQSSFPGWLPQETNLTLKVC
Second: RQHHHQSSFPGPLPQETNLTLKVC
The protein stability index of the first is lower: 2.44 for the first, 2.82 for the second.

First: RQHHHQSSFPGCLPQETNLTLKVC
Second: RQHHHQSSFPGQLPQETNLTLKVC
The protein stability index of the first is lower: 2.37 for the first, 2.55 for the second.

Compared with RQHHHQSSFTGSLPQETNLTLKVC, RQHHHQSSFRGSLPQETNLTLKVC is higher in protein stability index: 3.25 for the first, 3.75 for the second.

First: RQHHHQSSFNGSLPQETNLTLKVC
Second: RQHIHQSSFPGSLPQETNLTLKVC
The protein stability index of the first is higher: 2.69 for the first, 2.34 for the second.

Going from RQHRHQSSFPGSLPQETNLTLKVC to RQHFHQSSFPGSLPQETNLTLKVC, the protein stability index rises from 1.94 to 2.74.

Going from RQHMHQSSFPGSLPQETNLTLKVC to RQAHHQSSFPGSLPQETNLTLKVC, the protein stability index rises from 2.37 to 2.84.

Compared with RVHHHQSSFPGSLPQETNLTLKVC, RAHHHQSSFPGSLPQETNLTLKVC is higher in protein stability index: 2.47 for the first, 2.67 for the second.

Going from RWHHHQSSFPGSLPQETNLTLKVC to RIHHHQSSFPGSLPQETNLTLKVC, the protein stability index falls from 2.58 to 2.28.

First: RPHHHQSSFPGSLPQETNLTLKVC
Second: RQHHHQSSFPGSLPQETPLTLKVC
The protein stability index of the first is lower: 2.77 for the first, 3.17 for the second.

Going from RQHHHQSSFPGSLPQETSLTLKVC to RQHHHQSSFPGSLPQETLLTLKVC, the protein stability index falls from 2.65 to 2.2.

First: RQHHHQSSFPGSLPQETTLTLKVC
Second: RQHHHQSSFPGSLPQETNLTLRVC
The protein stability index of the first is lower: 2 for the first, 2.28 for the second.

Compared with RQHHHQSSFPGSLPQETNLTLGVC, RQHHHQSSFPGSLPQETNLTLCVC is lower in protein stability index: 3.42 for the first, 1.75 for the second.

Compared with RQHHHQSSFPGSLPQETNLTLQVC, RQHHHQSSFPGSLPQETNLTLYVC is lower in protein stability index: 2.92 for the first, 2.28 for the second.
